Tests used:
[1] = test system: Candida albicans ATCC 10231; test: Antimicrobial spread-plate (CFU) killing assay, C. albicans; type: cell-based
Experimental: (§1) To determine whether the above microbicidal concentrations exert a permeabilizing effect on fungal and bacterial membranes, the influx of the fluorescent nucleic acid-binding dye propidium iodide (PI) in cells incubated with the peptides was assessed. In cells, dye uptake reflects membrane permeabilization, as PI itself cannot permeate through an intact phospholipid bilayer. […] To select an antimicrobial but non-permeabilizing concentration of each peptide for further assays, we defined as a non-permeabilizing inhibitory concentration (NPIC) the antimicrobial inhibitory concentration (≤10% viable cells) that permeabilized ≤ 10% of cells incubated (90 min at 37 °C) in buffer solution.
(§2) Microbial susceptibility to the peptides was determined in a spread-plate assay as described previously. Briefly, cell suspensions (10^6 cells/mL) in Tris buffer (10 mM Tris-HCl, pH 7.4) were incubated for 90 min at 37 °C with 2-fold serial peptide dilutions. Peptide concentrations ranged from 0 to 2 μM. After incubation, the number of viable cells was determined by plating aliquots (100 μL) in duplicate on plates (SDA for C. albicans, TSA for P. aeruginosa, and M17G agarified medium for L. lactis) that had been dried for 30 min at room temperature in a laminar flow hood. Plates were incubated for 24–48 h at 30 °C (C. albicans and L. lactis) or 24 h at 37 °C (P. aeruginosa). Dilutions yielding 50–200 colonies were counted. Cell viability values, expressed as colony-forming units (CFUs), were calculated relative to the incubation without added peptides and represent the means ± standard deviation (SD) from duplicates of three independent experiments. For inhibition assays, unless otherwise noted, cell suspensions were preincubated (15 min at 37 °C) with the appropriate inhibitor prior to the addition of peptides, but the inhibitor was present throughout the incubation period with the peptide (90 min at 37 °C). Other specific experimental conditions are described as appropriate. In some experiments, the concentrations of human lactoferrin against C. albicans (5 μM), P. aeruginosa (1 μM), and L. lactis (0.065 μM) were used in the control assays. In various viability assays, BM2 peptide (0.25 μM), CCCP (50 μM), colistin (4 μg/mL), nystatin (50 μM), oligomycin A (16 μg/mL), piericidin A (32 μM), and TEA (10 mM) were used.

[2] = test system: Lactococcus lactis subsp. lactis (strain IL1403); test: Antimicrobial spread-plate (CFU) killing assay, fermenting L. lactis; type: cell-based; details: human lactoferrin 0.062 µM; fermentative conditions; relative to untreated control
Experimental: as §2, with “In some experiments, the concentrations of human lactoferrin against C. albicans (5 μM), P. aeruginosa (1 μM), and L. lactis (0.065 μM) were used in the control assays. In various viability assays, BM2 peptide (0.25 μM), CCCP (50 μM), colistin (4 μg/mL), nystatin (50 μM), oligomycin A (16 μg/mL), piericidin A (32 μM), and TEA (10 mM) were used.” left out

C. albicans cells [3] = test: Oxygen consumption measurement (polarographic), C. albicans; type: cell-based, Candida albicans; details: after 30 min; defensins 2 x NPIC, human lactoferrin 20 μM, piericidin A 32 µM; preincubated 15 min at 37 °C; untreated cells 94% ± 2%; means ± SD, three experiments
Experimental: (§3) Oxygen consumption by C. albicans and P. aeruginosa cells was determined by polarographically using a biological oxygen monitor (dual digital-model 20; Rank Brothers Ltd., Cambridge, UK) at 25 °C. The apparatus consisted of a twin water-jacketed closed sample chamber, which enabled a control experiment to be conducted concurrently. The cells were grown to mid-log phase in SDB (C. albicans) or TSB (P. aeruginosa), washed twice in Tris buffer, and resuspended in the same buffer. Cell suspensions (approximately 10^7 cells/mL) were preincubated with defensins (2 x NPIC), human lactoferrin (20 μM), or piericidin A (32 μM) for 15 min at 37 °C. Oxygen consumption was recorded at 5-min intervals for a period of 30 min. Three independent experiments were performed, and the data are means ± SD.

P. aeruginosa cells = test: Oxygen consumption measurement (polarographic), P. aeruginosa; type: cell-based, Pseudomonas aeruginosa; details: after 30 min; defensins 2 x NPIC, human lactoferrin 20 μM, piericidin A 32 µM; preincubated 15 min at 37 °C; untreated cells 83% ± 2%; means ± SD, three experiments
Experimental: as §3

C. albicans cells [4] = test: Membrane potential monitoring with DiBAC4(3), flow cytometry; type: cell-based, Candida albicans; details: peptides at NPIC, hLf 5 μM, BM2 0.25 μM; DiBAC4(3) 1 µg/mL
Experimental: The membrane potential-sensitive probe DiBAC4(3) was used to monitor the transmembrane electrical potential of C. albicans cells as previously described with slight modifications. Briefly, cells were harvested from mid-log phase cultures via centrifugation and suspended in Tris buffer. The cell suspension was adjusted to 10^6 cells/mL and then incubated with DiBAC4(3) at a final concentration of 1 µg/mL for 30 min. Fluorescence was measured using a CytoFLEX S flow cytometer (Beckman Coulter) with excitation at 561 nm and emission at 690/50 nm. For each treatment, 5000 events were counted per experiment with an exposure time of 1000 ms. Results were analyzed using CytExpert 2.1 Acquisition software. As positive controls, human lactoferrin and BM2 peptide were used. Three independent experiments were performed and data are expressed as means ± SD.

C. albicans cells [5] = test: Total cellular ATP (BacTiter-Glo); type: cell-based, Candida albicans; details: defensins at NPIC, human lactoferrin 5 μM, BM2 peptide 0.25 μM; 10^6 cells/mL; BacTiter-Glo luminescence
Experimental: Total ATP was measured using the BacTiter-Glo^TM Microbial Cell Viability Assay (Promega Co., Madison, WI, USA) according to the manufacturer’s instructions. […] Aliquots (100 µL) were incubated (90 min at 37 °C) with human defensins (NPICs). Human lactoferrin (5 μM) or BM2 peptide (0.25 μM) was used as positive controls. One hundred microliters of the incubation mixture was transferred to an opaque 96-well plate, mixed with an equal volume of BacTiter-Glo^TM reagent, and incubated for 15 min in the dark. The reagent uses a thermostable luciferase to generate luminescence in an ATP-dependent manner. The emitted luminescence was detected using a Varioskan Flash multimode reader (Thermo Scientific, Waltham, MA, USA) with a 10 s shaking and 1 s integration time. A calibration curve was generated for each experiment with ATP standards ranging from 1 to 1000 nM. All assays were performed at least three times in duplicate.

[6] = test system: Pseudomonas aeruginosa PAO1; test: Antimicrobial spread-plate (CFU) killing assay, P. aeruginosa; type: cell-based
Experimental: as §1
as §2, with “In some experiments, the concentrations of human lactoferrin against C. albicans (5 μM), P. aeruginosa (1 μM), and L. lactis (0.065 μM) were used in the control assays. In various viability assays, BM2 peptide (0.25 μM), CCCP (50 μM), colistin (4 μg/mL), nystatin (50 μM), oligomycin A (16 μg/mL), piericidin A (32 μM), and TEA (10 mM) were used.” left out

[7] = antimicrobial concentration (≤10% viable cells) that permeabilized ≤10% of cells, 10^6 cells/mL, Tris buffer pH 7.4, 90 min at 37 °C, from Figure 1 data, duplicates of three experiments

B1: human lactoferrin: Recombinant human apo-lactoferrin (hLf), 691 amino acid γ-core protein that inhibits microbial PM H+-ATPases; control (protein, UniProt P02788 20-710, looked up)
Lactotransferrin: GRRRSVQWCAVSQPEATKCFQWQRNMRKVRGPPVSCIKRDSPIQCIQAIAENRADAVTLDGGFIYEAGLAPYKLRPVAAEVYGTERQPRTHYYAVAVVKKGGSFQLNELQGLKSCHTGLRRTAGWNVPIGTLRPFLNWTGPPEPIEAAVARFFSASCVPGADKGQFPNLCRLCAGTGENKCAFSSQEPYFSYSGAFKCLRDGAGDVAFIRESTVFEDLSDEAERDEYELLCPDNTRKPVDKFKDCHLARVPSHAVVARSVNGKEDAIWNLLRQAQEKFGKDKSPKFQLFGSPSGQKDLLFKDSAIGFSRVPPRIDSGLYLGSGYFTAIQNLRKSEEEVAARRARVVWCAVGEQELRKCNQWSGLSEGSVTCSSASTTEDCIALVLKGEADAMSLDGGYVYTAGKCGLVPVLAENYKSQQSSDPDPNCVDRPVEGYLAVAVVRRSDTSLTWNSVKGKKSCHTAVDRTAGWNIPMGLLFNQTGSCKFDEYFSQSCAPGSDPRSNLCALCIGDEQGENKCVPNSNERYYGYTGAFRCLAENAGDVAFVKDVTVLQNTDGNNNEAWAKDLKLADFALLCLDGKRKPVTEARSCHLAMAPNHAVVSRMDKVERLKQVLLHQQAKFGRNGSDCPDKFCLFQSETKNLLFNDNTECLARLHGKTTYEKYLGPQYVAGITNLKKCSTSPLLEACEFLRK
modifications: apo form
notes: control
effect of high extracellular K+ on candidacidal activity ([1]; 50 mM KCl, defensins at NPIC, hLf 5 μM, BM2 0.25 μM, nystatin 50 μM): significantly decreased | non-permeabilizing inhibitory concentration (NPIC), C. albicans [1, 7]: 5 µM | effect of piericidin A on candidacidal activity ([1]; cells preincubated 15 min at 37 °C with 32 µM piericidin A, then peptides (NPIC) 90 min): significantly (p < 0.001) inhibited | effect of oligomycin A on candidacidal activity ([1]; preincubated 15 min at 37 °C with 16 μg/mL oligomycin A, peptides at NPIC): significantly reduced | effect of Tok1p inhibition (TEA) on candidacidal activity ([1]; preincubation 15 min at 37 °C with 10 mM TEA+, peptides at NPIC): reduced | cell viability of L. lactis [2]: 13% ± 5% | oxygen consumption percentage of C. albicans (C. albicans cells [3]): 90% ± 3% | O2 consumption of P. aeruginosa (P. aeruginosa cells): 87% ± 2% | transmembrane electrical potential (DiBAC4(3) fluorescence) (C. albicans cells [4]): increase in DiBAC4(3) fluorescence | increase in ATP levels compared to the untreated control (C. albicans cells [5]): ~ 6 fold | effect of high extracellular K+ on pseudomonacidal activity ([6]; 50 mM KCl, defensins at NPIC, hLf 1 μM, colistin 4 μg/mL): decreased | non-permeabilizing inhibitory concentration (NPIC), P. aeruginosa [6, 7]: 1 µM | effect of CCCP on bactericidal activity, P. aeruginosa ([6]; preincubated 15 min at 37 °C with 50 µM CCCP at pH 7.4, peptides at NPIC): slightly reduced

From article PMC11242853, “The Antimicrobial Activity of Human Defensins at Physiological Non-Permeabilizing Concentrations Is Caused by the Inhibition of the Plasma Membrane H^+-ATPases” (International Journal of Molecular Sciences, 2024)
